Data published in the nanobody polyreactivity screen of Harvey et al. (2022).

Test: yeast display, Sf9 membrane polyspecificity reagent, FACS + sequencing; frameworks hold sequencing errors
In short: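 A nanobody's polyreactivity label depends on the gate it was sorted from. Yeast display cells were stained with 10% biotinylated, detergent-solubilized Sf9 membrane reagent for 1 hour at 4 °C, enriched on streptavidin microbeads and sorted by FACS. The low and high (top ~1%) gates were set on anti-HA fluorescence for expression and streptavidin fluorescence for reagent binding.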

| Sequence | polyreactivity (PSR sort gate) |
| --- | --- |
| QVQLVESGGGLVQAGGSLRLSCAASGSTYRWYAMGWYRQAPGKEREFVAAITWSGGRTYYADSVKGRFTISRDNAKNTVYLQMNSLKTEDTAVYYCNADDYGYSFNYWGQGTQVTVSS | high polyreactivity |
| QVQLVESGGGLVQAGGSLRLSCAASGSTYRYNAMGWYRQAPGKERELVAAITSGGRTNYADSVKGRFTISRDNAKITVYLQMNSLKPEDTAVYYCAARRYGRNWHYDYWGQGTQVTVSS | high polyreactivity |
| QVQLVESGGGLVQAGGSLRLSCAASGSTYSWYAMGWYRQAPGKERELVASISWRGGSTYYADSVKGRFTISRDNAKNTVYLQMNSLKPEDTAVYYCAADYYWKLFHEPPAVYDYDYWGQCTQVTVSS | low polyreactivity |
| QVQLVESGGGLVQAGGSLRLSCAASGSTYTGYTMGWYRQAPGKERELVAAITYRGGSTYYADSVKGRFTISRDNAKNTVYLQMNSQKPEDTPVFYCAAVPEYYEYSPYDYWGQGTQVTVSS | low polyreactivity |
| QVQLVESGGGLVQAGGSLRLSCAASGSTYTLNAMGWYRQAPGKERELVADITSGGGGTYYADSVKGRFTISRDNAKNTVYLQMNSLKPEDTAVYYCAADDFHSLLGYWYGLFDYWGQGTQVTVSS | low polyreactivity |
| QVQLVESGGGLVQAGGSLRLSCAASGSTYTRYAMGWYRQATGKDRELVAAISRSGGSTYYADSVKGRFTISRDNAKNTVYLQMNSLKPEDTAVYYCRKFTLTTVTNYWGQGTQVTVSS | high polyreactivity |
| QVQLVESGGGLVQAGGSLRLSCAASGSTYVYAMGLYRQAPGKERELVASISWSDSSTYYADSVKGRFTISRDNAKNTVYLQMNSLKPEDTAVYYCNADQGTRDSDYWGQGTQVTVSS | low polyreactivity |
| QVQLVESGGGLVQAGGSLRLSCAASGSTYYPNAMGWYRQAPGKERELVAAISRGTRTKYADSVKGRFTISRDNAKNTVYLQMNSLKPEDTAVYYCAVLTYRGRFEYWGQGTQVTVSS | high polyreactivity |
| QVQLVESGGGLVQAGGSLRLSCAASGSTYYYAMGWYRQAPGKEREFVAAISRDGSSTYYADSVKGRFTISRDNAKYTVYLQMNSLKPEDTAVYYCAASIIRFSTSADKLVTSRYYYWGQGTQVTVSS | high polyreactivity |
| QVQLVESGGGLVQAGGSLRLSCAASGTFAFYTMGWYRQAPGKERELVAAISWDGGDTYYADSVKGRFTISRDNAKNNVYLQMNSLKPEDTAVYYCAAELGYYVYGSYYSYDYCGQGTQVTVSS | high polyreactivity |
| QVQLVESGGGLVQAGGSLRLSCAASGTFAGNAMGWYRQAPGKERELVAAITTGGRTYYADSVKGRFTISRDNAKNTVYLQMNSLKPEDTAVYYCAADRIRDLEFDYWGQGTQVTVSS | low polyreactivity |
| QVQLVESGGGLVQAGGSLRLSCAASGTFARYAMGWYRQAPGKERELVAAITRRGGNTYYADSVKGRFTISRDNAKNTVYLQMNSLKPEDTAVYYCARDYYYNYWWMDYWGQGTQVTVSS | high polyreactivity |
| QVQLVESGGGLVQAGGSLRLSCAASGTFPVYTMGWYRQAPGKERELVAAISRNGGSTYYADSVKGRFTISRDNAKNTVYLQMNSLKPEDTAVYYCAAVKVKRPGMDYWGQGTQVTVSS | high polyreactivity |
| QVQLVESGGGLVQAGGSLRLSCAASGTFSFYAMGWYRQAPGKERELVAAITRSSSRTYYADSVKGRFTISRDNAKNTVYLQMNSLKPEDTAVYYCRAKQVNRFDYWGQGTQVTVSS | high polyreactivity |
| QVQLVESGGGLVQAGGSLRLSCAASGTFSPYAMGWYRQAPGKESELVAVITSNTGRTYADSVKGRFTISRDNAKKTVYLQMNSLKPEDTAVYYCAARSTYRHWYRTGSRFDYWGQGTQVTVSS | low polyreactivity |
| QVQLVESGGGLVQAGGSLRLSCAASGTFSSNAMGWYRQAPGKERELVAAISSTGTTTYYADSVKGRFTISRDNAKNTVYLQMNSLKPEDTAVYYCAKYAYTSVHSWYYYWGQGTQVTVSS | high polyreactivity |
| QVQLVESGGGLVQAGGSLRLSCAASGTFSYYAMGWYRQAPGKERELVATISWSGDSTYYADSVKGRFTISRDNAKNTVYLQMNSLNPEDTAVYYCNADHFQWGAGYDYWGQGTQVTVSS | low polyreactivity |
| QVQLVESGGGLVQAGGSLRLSCAASGTFVYYAMGWYRQAPGKERELVAVISLNGGITYYADSVKGRFTISRDNAKNTVYLQMNSLKPEDTAVYYCNAQFYNSGWSFKSYYWGHGTQVTVSS | low polyreactivity |
| QVQLVESGGGLVQAGGSLRLSCAASGTFYLYAIGWYRQAPGNERELVAALTRGGSTNYADSVKGRFTISRDNAKNTVDLQMNSLKPEDTAVYYCAAGSSRVFRKAGITRPSGLYYYWGQGTQVTVSS | high polyreactivity |
| QVQLVESGGGLVQAGGSLRLSCAASGTFYLYAMGWYRQAPGKERELVAAISGSGSTNYADSVKGRFTISRDNAKNTVYLQMNSLKPEDTAVYYCAAYQRYDSVTGARYEYDYWGQGTQVTVSS | low polyreactivity |
| QVQLVESGGGLVQAGGSLRLSCAASGTFYLYAMGWYRQAPGKERELVARINSSGSTNLRRLCEGALHNFTRQCEEYRLFTDEQPETGRYRVYYCNADTKRSSREYDYWGQGTQVTVSS | low polyreactivity |
| QVQLVESGGGLVQAGGSLRLSCAASGTICYPYAMGWYRQAPGKERELVASISWSGGSTRYADSVKGRFTISRDNAKNTVYLQMNSLKPEDTAVYYCAARYILSKYGSGVRYNYWGQGTQVTVSS | high polyreactivity |

| Sequence | polyreactivity (PSR sort gate) |
| --- | --- |
| QVQLVESGGGLVQAGGSLRLSCAASGTIFQSNAMGWYRQAPGKERELVAAISSSGGRTYYADSVKGRFTISRDNAKNTVYLQMNSLKPEDTAVYYCADLGYPDGGWGQGTQVTVSS | low polyreactivity |
| QVQLVESGGGLVQAGGSLRLSCAASGTIYYNTMGWYRQAPGKERELVASISRTGSTKYADSVKGRFTISRDNAKNTVYLQMNSLKPEDTAVYYCAADYLAFREGAVWLYDYWGQGTQVTVSS | high polyreactivity |
| QVQLVESGGGLVQAGGSLRLSCAASGTMGSYRQAPGKERELVAAISQSGGSTYYADSVKGRFTISRDNAKNTVYLQMNSLKPEDTAVYYCAVDPRYGHPRRDYWGQGTQVTVSS | low polyreactivity |
| QVQLVESGGGLVQAGGSLRLSCAASGTMPGYAMGWYRQAPGKERELVAAITWSDDSTFYADSVKGRFTISRDNAKNTVYLQMNSLKPEDTAVYYCAAEYVVSTQEFDYCGQGTQVTVSS | low polyreactivity |
| QVQLVESGGGLVQAGGSLRLSCAASGTNFRYYTMGWYRQAPGKERELVAAITYSGGTTYYADSVKGRFTISRDNAKNTVYLQMNSLKPEDTAVYYCAATFQANYFSGYYTVYLSDYWGQGTQVTVSS | low polyreactivity |
| QVQLVESGGGLVQAGGSLRLSCAASGTTFARNAMGWYRQAPGKERELVAVISYSGGSSYADSVKGRFTISRDNAKNTVYFHMKSLKPEVTAVYYCAARAWYPSRYDFWGQGTQVIVSS | high polyreactivity |
| QVQLVESGGGLVQAGGSLRLSCAASGTTFAYNAMGWYIQAPGKEREMVAAISTSGGSTNYADSVKGRYTISRDNAMNTVYLQMNSLKPEDTAVYYCAARPKTPSITRYGYWGQGTQVTVSS | high polyreactivity |
| QVQLVESGGGLVQAGGSLRLSCAASGTTFCSYAMGRYRQAPGKEREFVAAISSSDDSTYYADSVKGRFTISRDYAKNTVYLQMNSLKPEDTAVYYCAAAQRVNHVWYDYWGQGTQVTVSS | low polyreactivity |
| QVQLVESGGGLVQAGGSLRLSCAASGTTFGGNSMGWYRQAPGKERELVAAIDSGGSTYADSVKGRFTISRDNAKNTVYLQMNSLKPEDTAVYYCAAVWEFVHYWRFDYWGQGSQVTVSS | low polyreactivity |
| QVQLVESGGGLVQAGGSLRLSCAASGTTFGINAMGWYRQAPGKERELVASITRRGGSTYYADSVKGRFTISRDNAKNTVYLQMNSLKPEDTAVYYCNKTYRYGTPLYDYWGQGTQVTVSS | high polyreactivity |
| QVQLVESGGGLVQAGGSLRLSCAASGTTFGPNAMGWYRQAPGTERELVAAIRWRGGSTYYADSVQGRFTIARDNAKNTVYLQMNSLKPEDTAVYYCADTRYSWHNRVSRRHRYDYWGQGTQVTVSS | high polyreactivity |
| QVQLVESGGGLVQAGGSLRLSCAASGTTFGQYAKGWYRQAPGKERDLLAAISSGGRTNYADSVKGRFTISRDNAKNTVYLQMNCVKPEDSAVYDCAARYYFPFRRFRRMDYWGQGTQVTVSS | high polyreactivity |
| QVQLVESGGGLVQAGGSLRLSCAASGTTFGRYAMGWYRQAPGKERELVAAITRSGGRTYYADSVKERFTISRDNAKNTVYLQMNSLIPEDTAVYYCAAVGNLYYTSLWQYDYWGQGTQVTVSS | high polyreactivity |
| QVQLVESGGGLVQAGGSLRLSCAASGTTFKTYCMGRYRQAPGKERELVAAISRRGGSTSYADSVKGRFTISRDNAKNTVYLQMNSLKPEDTAVYYCNVLGWWHVWGYDYWGQGTQVTVSS | high polyreactivity |
| QVQLVESGGGLVQAGGSLRLSCAASGTTFTDNAMGWYRQAPGKERELVAAITSGSSTNYADSVKGRFTISRDNAKNTVSLQMNSLKPEDTAVYYCATGQVPQYSTGDYWGQGTQVTVSS | low polyreactivity |
| QVQLVESGGGLVQAGGSLRLSCAASGTTLPYYAMGWYRQAPGKERELVAAITSSGGDTYYADSVKGRFTISRDNAKNTVYLQMNSLKPEDTAVYYCAKSYSARSTVRKLFYFAYDYWGQGTQVTVSS | low polyreactivity |
| QVQLVESGGGLVQAGGSLRLSCAASGTYFNAMGWYRQAPGKERELVAAISLSGGRTYYADSVKGRFTISRDNAKNTVYLQMNSLKPEDTAVYYCAASNRGATRRQVNYWGQGTQVTVSS | high polyreactivity |
| QVQLVESGGGLVQAGGSLRLSCAASGVIFGPNAMGWYRQAPGKERELVAAIRWSGSRTYYADSVKGRFTISRDNAKNTVYLQMNSLKPEDTAVYYCAATGGLNGALSRLEYWGQGTQVTVSS | high polyreactivity |
| QVQLVESGGGLVQAGGSLRLSCAASGVIFGYYAMGWDRQAPGKERELVAAITLSGSRTYYADSVTGRFTISRDTAKNTVDLQMNSLKPEDTAVYYCAKRRYWYYRSRDWFVSGDYWGQGTQVTVSS | low polyreactivity |
| QVQLVESGGGLVQAGGSLRLSCAASGVILSAYAMGLYRQAPAKERELVAAITGSGGRTYYADSVKGRFTISRDNAKNTVYFQMNSLKPEDTAVNYCAARYTYVGSYTYNSWGQGPQVTVSS | high polyreactivity |
| QVQLVESGGGLVQAGGSLRLSCAASGVNAMGWYRQAPGKEREFVAAITSIGGSTYYADSVKGRFTISRDNAKNTVYLQLNSLKPEDTAVYDCNTDRGPVKVSPLYESWGQGTQVTVSS | low polyreactivity |
